# Target: the molecule itself
# Assay: crystal structure
row,Protein,stoichiometry N
1,"Sin R54E/I113V catalytic domain (residues 1-128) (domain or fragment, UniProt P20384 1-128, looked up, selenomethionine in place of methionine) MIIGYARVSSLDQNLERQLENLKTFGAEKIFTEKQSGKSIENRPILQKALNFVEMGDRFIVESIDRLGRNYNEVIHTVNYLKDKEVQLMITSLPMMNEVIGNPLLDKFMKDLVIQILAMVSEQERNES",4
2,"Sin R54E/T77I/I100T/Q115R catalytic domain (residues 1-128) (domain or fragment, UniProt P20384 1-128, looked up, selenomethionine in place of methionine) MIIGYARVSSLDQNLERQLENLKTFGAEKIFTEKQSGKSIENRPILQKALNFVEMGDRFIVESIDRLGRNYNEVIHIVNYLKDKEVQLMITSLPMMNEVTGNPLLDKFMKDLIIRILAMVSEQERNES",4
3,"Sin R54E/I100T/Q115R catalytic domain (residues 1-128) (domain or fragment, UniProt P20384 1-128, looked up, selenomethionine in place of methionine) MIIGYARVSSLDQNLERQLENLKTFGAEKIFTEKQSGKSIENRPILQKALNFVEMGDRFIVESIDRLGRNYNEVIHTVNYLKDKEVQLMITSLPMMNEVTGNPLLDKFMKDLIIRILAMVSEQERNES",4
4,"Sin R54E/I100T catalytic domain (residues 1-128) (domain or fragment, UniProt P20384 1-128, looked up, selenomethionine in place of methionine) MIIGYARVSSLDQNLERQLENLKTFGAEKIFTEKQSGKSIENRPILQKALNFVEMGDRFIVESIDRLGRNYNEVIHTVNYLKDKEVQLMITSLPMMNEVTGNPLLDKFMKDLIIQILAMVSEQERNES",4
